Measured values published in patent US20250230211A1 (NANTCELL, published 2025).

Experiments:
[1] = target: T1, human CTLA4 (human, UniProt P16410 36-161); test: SPR, antibody captured by anti-human IgG Fc, analyte by OneStep injection at 40 nM and 20 nM
T1 sequence (looked up): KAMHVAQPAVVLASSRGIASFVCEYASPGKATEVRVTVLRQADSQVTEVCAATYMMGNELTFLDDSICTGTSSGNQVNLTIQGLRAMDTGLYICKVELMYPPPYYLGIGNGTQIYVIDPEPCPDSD
Description: (§1) Surface plasmon resonance (SPR) studies were conducted with the purified fusion proteins to assess their binding affinities to relevant targets. The SPR kinetic assay was performed by immobilizing rabbit α-human IgG Fc antibodies (Thermo) on a PCH sensor (Sartorius) as the capture molecule. All molecules of interest were then captured on the sensor surface by α-IgG1-Fc and Fc domain interaction. Binding kinetics against IL-2Rβ, human CTLA4, and murine CTLA4 were determined by OneStep injection at 40 nM and 20 nM of each analyte. […] The αCTLA4-scFv has higher affinity to CTLA4 than when the binding domain is in IgG form.

[2] = target: T2, murine CTLA4 (murine, UniProt P09793 36-161, limits assumed); test: as above
T2 construct: also called Mouse CTLA4
Description: as §1

B1: αCTLA4-7 (antibody, human IgG1, kappa, V domains shown)
VH: EVQLVESGGGLVQPGGSLRLSCAASGFTFTSYSMHWVRQAPGKGLEWVSGISGSGRSTSYADSVKGRFTISRDNSKNTLYLQMNSLRAEDTAVYYCARDLMAFNLVRAGGFDVWGQGTLVTVSS
VL: DIQMTQSPSSLSASVGDRVTITCQASQDISNYLNWYQQKPGKAPKLLIYDASNLETGVPSRFSGSGSGTDFTFTISSLQPEDIATYYCQQGDAWPWTFGQGTKVEIKR
B1 gave a Kd [1] of 1.1 to 1.6 nM and a Kd [2] of 0.13 to 2.1 nM.
